Laboratory results taken from the supplement of paper PMC10567573.
± gives the standard deviation.

Assay: protein stability index of a GFP-peptide fusion (GPS, HEK-293T) (PSI 1-6); higher = more stable
[1] = treatment: DMSO, c terminus: a fixed tail appended
[2] = treatment: MLN4924 1 uM, 8 h, c terminus: a fixed tail appended
[3] = treatment: DMSO, c terminus: native
[4] = treatment: MLN4924 1 uM, 8 h, c terminus: native
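Further: 24-mer peptide tiles fused after GFP, lentivirally expressed, FACS-sorted into six equal bins by GFP/DsRed ratio, decoded by Illumina sequencing, PSI is the read-weighted mean bin number.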

Sequence	protein stability index [1]	protein stability index [2]	protein stability index [3]	protein stability index [4]
IWFIVPISCVICNDIMAYMFGFFF [CDS2]	3.19 ± 0.25	3.11 ± 0.61	–	–
VTQMNHIPMHIDHDRNMDWVSTQL [FADS1]	3.14 ± 0.45	3.02 ± 0.21	–	–
VGPWLGQLQELLHHCDDHLSLYQL [RSAD1]	2.25 ± 0.45	2.6 ± 0.55	–	–
QQESESEIDSVPKTQSELASESEH [MIA2]	5.44 ± 0.17	5.62 ± 0.15	–	–
QWILDKQDLLKERQKDLKFLSEEE [CCNC]	4.43 ± 0.26	4.53 ± 0.097	–	–
KYREAARLEINVLKKIKEKDKENK [CLK3]	4.45 ± 0.18	4.25 ± 0.41	–	–
GRLSMAAADIVNFLTVGSVLQMWH [ZBTB22]	3.33 ± 0.17	3.4 ± 0.48	–	–
FRDATSAPLRKLSVDLIKTYKHIN [DYRK1B]	3.36 ± 0.17	3.39 ± 0.27	–	–
TSCIVIILIIISVIVQIKQPRKKY [NETO1]	3.26 ± 0.17	3 ± 0.16	–	–
RLEKAVAAAYTFLQRNPKHELTAK [P3H4]	2.32 ± 0.12	2.49 ± 0.29	–	–
ILRSQLVTLLVRGVCYSESQSSAS [CLCN6]	2.88 ± 0.38	2.95 ± 0.39	–	–
FKLKESCVRRRYSDFEWLKNELER [SNX12]	2.33 ± 0.21	2.59 ± 0.26	–	–
YQSYFKTIEELQQKILCSKSENAR [KRT33B]	2.57 ± 0.38	2.84 ± 0.49	–	–
CRPLQFQPSKSHKKVLKKMLKFLA [ATE1]	–	3.43 ± 0.17	–	–
SQHCKPEEGLEARGEALGLVGAQA [MAGEA3]	4.73 ± 0.2	4.73 ± 0.22	–	–
AEKWQKEKDRIKSFTTNEKAILEQ [TRIM29]	4.76 ± 0.21	4.8 ± 0.22	–	–
SSSRPISPGLSYASHTVGFTPPTS [CCDC6]	3.54 ± 0.22	3.74 ± 0.15	–	–
QELLERGLLQLDHRGLRCSWEGLA [RSAD1]	2.31 ± 0.2	2.6 ± 0.23	–	–
LSWELLDSHLGGNARGMGIRSPRP [CTBP1-DT]	3.18 ± 0.46	3.18 ± 0.3	–	–
LVHSAVDVPTIQEKVNEGKYRSYE [ZMYND11]	4.47 ± 0.3	4.32 ± 0.2	–	–
PETQARLEALLEAAGIGKLSTADG [ANKRD17]	2.95 ± 0.32	3.18 ± 0.42	–	–
QSLKGHLRNNFQKQLLSNKELILD [ZC2HC1C]	3.08 ± 0.3	3.17 ± 0.29	–	–

Sequence	protein stability index [1]	protein stability index [2]	protein stability index [3]	protein stability index [4]
AEAERLDVKAMGPLVLTEVLFNEK [EIF5]	4.01 ± 0.2	4.17 ± 0.24	–	–
PRRLGRLKYQAPDIDVQLSSELTD [NOP53]	4.11 ± 0.48	4.14 ± 0.34	–	–
WIAHSEKLPRKVLQHVSEPQAHQE [SPACA9]	4.11 ± 0.35	4.05 ± 0.34	–	–
ERDLQELSIQVEEERRAREWLLDA [ZMAT5]	4.54 ± 0.092	4.95 ± 0.32	–	–
DSHILLCLMGLAETPGCATLLPAS [DCAF4]	2.67 ± 0.45	2.58 ± 0.55	–	–
LVVNIDNAKLASDDFRSKYQTEQS [KRT34]	3.65 ± 0.2	3.62 ± 0.2	–	–
PLLMNRQRVPKVLVENAKNFPQCV [EFHC1]	2.46 ± 0.44	2.47 ± 0.072	–	–
EEERRRREEEERERLQKEEEKRRR [ACBD3]	5.59 ± 0.45	5.69 ± 0.12	–	–
QEVSSVRSLSSTGSLPSHAPPSED [DLC1]	5.42 ± 0.22	5.44 ± 0.24	–	–
QMVSAIVRTMQNTNDVETARCTAG [CTNNB1]	2.87 ± 0.12	2.93 ± 0.3	–	–
PADALQYLLQFARKPVEAESVEGV [INTS4]	2.9 ± 0.29	2.98 ± 0.41	–	–
HHFNSSHLEIDDMYTPAYGDFDFD [MYORG]	4.34 ± 0.11	4.23 ± 0.24	–	–
CFPRLDINVSKGINHLLKSPFSVH [PRIM1]	2.14 ± 0.68	2.05 ± 0.36	–	–
VCVDRVLYLFGGHHSRGNTNKFYM [KLHDC2]	2.37 ± 1.4	2.86 ± 1.1	–	–
AIEIFRYSFYMLTCIDMDWKVLTW [HACD3]	3.23 ± 0.4	2.57 ± 0.53	–	–
MGGPAISMASPMSIPTNTMHYGS [CARM1]	–	–	2.96 ± 0.25	2.95 ± 0.23
GLSSSSARFLSRSIPSLQSEYVHY [CDC14A]	2.97 ± 0.53	3.02 ± 0.21	–	–
GGTEEKSSLLMSCLACDTWAVIL [RPAIN]	–	–	2.7 ± 0.86	2.4 ± 0.84
PTMAPAGQPAPVSMVPPSPAMAAS [SNAP91]	4.75 ± 0.22	4.89 ± 0.28	–	–
DEDDSTSRFSSSTEQSSASRLMRR [DVL3]	5.28 ± 0.25	5.36 ± 0.26	–	–
FLSGMEAAPRTLAAHPPLPLLPPA [TBX6]	2.95 ± 0.41	3.15 ± 0.26	–	–
TGIEESTDGMILGPEDLSYQIYDV [LARP4]	3.76 ± 0.28	3.6 ± 0.29	–	–

Sequence	protein stability index [1]	protein stability index [2]	protein stability index [3]	protein stability index [4]
HDRNMDWVSTQLQATCNVHKSAFN [FADS1]	3.22 ± 0.29	3.46 ± 0.2	–	–
MFVFQDGRWVNENCRLQSPYFSPS [CBY2]	2.36 ± 0.37	2.05 ± 0.42	–	–
GANVKPRNSTPPSLARNPAPGVLT [ZC2HC1A]	4.24 ± 0.23	4.16 ± 0.5	–	–
VMARTRLVVPNKGYSSLDQSPDEK [FAM219A]	4.62 ± 0.34	3.88 ± 0.42	–	–
IRKLVAEKLNIPWNHIRLQRTAKG [AASDHPPT]	2.31 ± 0.27	2.44 ± 0.33	–	–
IISAHIHPVCSLCWSRDGHKLVSA [RBBP5]	2.45 ± 0.37	2.14 ± 0.24	–	–
AKNAAKDMNGKSLHGKAIKVEQAK [RBMY1A1]	4.64 ± 0.23	5.01 ± 0.53	–	–
FQEAAGPREALSRLQELCHGWLRP [ZNF263]	2.66 ± 0.4	2.67 ± 0.35	–	–
IILTNQSVREVTQIKCIELKSELG [P2RY14]	2.14 ± 0.23	2.27 ± 0.19	–	–
IYPVWTYSYLVLLFPVFLATDYLR [SLC19A2]	3.11 ± 0.53	3.29 ± 0.37	–	–
WAQYRQGEARFLPKDLDPSLCTHL [CHIT1]	2.65 ± 0.31	2.78 ± 0.39	–	–
NMQQPMNVMTQSFGAVNLSSPSNM [CLINT1]	3.44 ± 0.17	3.66 ± 0.17	–	–
TGILIFAIGVGQVDFNTLKSIGSE [MATN2]	3.69 ± 0.069	3 ± 0.56	–	–
NGSVGVKNSMENGRPPDPADWAVM [SAMD13]	3.99 ± 0.26	4.06 ± 0.24	–	–
KKLKIFAMPMQDIKMILKMVQLDS [PRAME]	2.93 ± 0.58	2.75 ± 0.56	–	–
LRLCAWGLASWPLARGIHVAGILS [POMT2]	2.3 ± 0.26	2.22 ± 0.2	–	–
VALLNKTNVKFLAITTDCLQILAY [CTNNB1]	2.86 ± 0.51	2.91 ± 0.42	–	–
AISITAIAKYSDGASKAAGVFGFF [CMTM3]	2.96 ± 0.88	2.78 ± 0.4	–	–
GEEQSQYMHVGSCQHLSSSAEELR [KCNA3]	4.83 ± 0.25	4.52 ± 0.2	–	–
SIPVTELSASGPFESHDLLRKGFS [POMP]	3.5 ± 0.25	3.39 ± 0.34	–	–
DISIHHFTCDEENVFAAVGRGLYV [WDR41]	2.7 ± 0.35	2.61 ± 0.43	–	–
